Literature values, collected in paper PMC12115143.

Experiments:
[1] = target: AHP2 (Arabidopsis thaliana) (UniProt Q9ZNV8)
[2] = target: AHP1 (Arabidopsis thaliana) (UniProt Q9ZNV9)
UniProt Q9ZNV9, sequence (Q9ZNV9 whole entry): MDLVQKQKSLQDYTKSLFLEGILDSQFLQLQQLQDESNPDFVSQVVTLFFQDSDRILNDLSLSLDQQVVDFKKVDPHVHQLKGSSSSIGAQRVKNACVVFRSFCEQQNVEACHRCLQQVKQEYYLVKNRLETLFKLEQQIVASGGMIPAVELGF

UniProt Q9ZNV8, sequence (Q9ZNV8 whole entry): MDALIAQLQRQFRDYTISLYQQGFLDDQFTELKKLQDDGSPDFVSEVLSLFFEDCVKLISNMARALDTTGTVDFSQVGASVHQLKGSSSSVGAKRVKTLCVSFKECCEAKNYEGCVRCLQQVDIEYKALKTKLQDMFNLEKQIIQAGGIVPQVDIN

Kd [1] | Kd [2] | Substance
300 nM |  | AHK1 (from UniProt Q9SXL4)
 | 1500 nM | ETR1 (from UniProt P49333)
